According to US20230036161A1, “AGENT FOR USE IN THE TREATMENT AND PROPHYLAXIS OF POSTISCHEMIC TISSUE INJURY” (Eberhard Karls Universität Tübingen Medizinische Fakultät, priority 2020, published 2023):

Assays:
[1] = system: WT animals; experiment: Murine myocardial ischemia and reperfusion model, rmSema7a injected into WT animals; assay type: in vivo, mouse
Protocol: This animal model has been described in detail in the prior art. Subgroups of animals received either recombinant mouse Sema7a (rmSema7a) or recombinant mouse IgG2A Fc (rmlgG2A Fc; control) intravenously before the start of the experiment or Sema7a antibody (abcam ab23578, Cambridge, UK; anti-Sema7a) or as control rabbit IgG sc-2027 (Santa Cruz Biotechnology, Santa Cruz, USA) 5 minutes before the start of reperfusion.
The Vectastain ABC kit (Linaris, Wertheim, Germany) was used for immunohistochemical staining. After inhibition of the nonspecific binding sites with avidin blocking solution (Vector), the sections were incubated with primary antibodies (rabbit anti-mouse CD41, abcam, Cambridge, UK) overnight at 4° C. Tissue sections were then incubated with biotinylated rabbit anti-IgG for 1 hour, followed by Vectastain ABC reagent for 30 minutes, then developed over DAB substrate. For PMN staining, the procedure was repeated using rat anti-mouse neutrophil antibody (BioRad, Serotec, Puchheim, Germany) and HistoGreen as substrate (Linaris, Wertheim, Germany). Counterstaining was performed with Nuclear Fast Red (Linaris, Wertheim, Germany). Histological sections were analyzed for the presence of PNCs by manual counting within 3 independent tissue sections of each animal at a magnification of […].
(§1) Troponin blood plasma levels of samples collected by central venous puncture after 120 minutes of reperfusion were measured for murine troponin I type 3 (TNNI3) using the SEA478Mu ELISA kit (Cloud-Clone Corp, Houston, USA).
For flow cytometric analysis, the following antibodies were used and freshly prepared before the experiment: rat anti-mouse Ly6G (Biolegend, clone 1A8) labeled with BV421 (Biolegend 127628), rat anti-mouse CD42b-FITC (Emfret, clone Xia.G5), rat anti-mouse CD62P (BD Pharmingen, clone RB40.34) labeled with Alexa Fluor 647 (BD 563674), rat anti-mouse activated GPIlb/IIIa-PE (Emfret, clone JON/A).
After staining, sampling focused peripheral granulocytes by their granularity and surface expression of the lymphocyte antigen-6 complex, locus G (Ly-6G), referred to as SSC/Ly-6G+. The presence of the platelet surface marker CD42b on the surface of SSC/Ly-6G+ events distinguished SSC/Ly-6G+/CD42b+ platelet-neutrophil complexes (PNCs) from freely circulating SSC/Ly-6G+/CD42b- PMNs. These two populations were tested for their representation of the surface transmembrane glycoprotein P-selectin (CD62P) and activated GPIlb/IIIa (clone JON/A) (not shown).

[2] = system: Sema7a^loxP/loxP HBBCre+ animals; experiment: Murine myocardial ischemia and reperfusion model, reconstitution of Sema7a loxP/loxP HbbCre+ animals with rmSema7a; assay type: in vivo, mouse
Text: Sema7a^−/−mice were generated, validated and characterized as described in the prior art. The corresponding WT controls were bred as littermates of the Sema7a mice. In a subset of experiments, a newly generated Sema7a flox mouse line (Sema7a^loxP/loxP/Ozgene) on a C57BL/6 background was crossed with the following Cre recombinase-positive mouse lines to obtain tissue-specific gene deletion: Erythrocyte-specific HbbCre+, myocardial cell-specific Myh6Cre+; endothelial cell-specific Tie2Cre+; and immune cell-specific LysMCre+. Tissue-specific gene deletions of Sema7a mouse lines (Sema7a^loxP/loxP HbbCre+; Sema7a^loxP/loxP Myh6Cre+, […], and Sema7a^loxP/loxP LysMCre+) were used in the experiments. Sema7a^loxP/loxP Cre-negative (−) littermates were used as controls. […]
The Vectastain ABC kit (Linaris, Wertheim, Germany) was used for immunohistochemical staining. […] Histological sections were analyzed for the presence of PNCs by manual counting within 3 independent tissue sections of each animal at a magnification of […].
as §1

[3] = system: WT platelets; experiment: Flow chamber: thrombus formation on collagen in flow, whole-blood perfusion; assay type: cell-based, mouse
Protocol: (§2) Platelet adhesion in flow was measured by perfusion of murine whole blood on collagen-coated coverslips (200 μg/ml fibrillar type I collagen) at 1000 s^−1 or 400 s^−1, as indicated. Platelets were labeled with a DyLight 488-conjugated anti-GPIX Ig derivative ([…]) and treated with rmSema7a or IgG2A Fc for 5 minutes at 37° C. before perfusion. In the case of treatment with GPlb-blocking antibody, 100 μg/mouse p0p/B Fab was injected intravenously 20 minutes before blood collection for the experiment. In further experiments, blood from animals with […] GPlb (GPlb-IL4tg) was used.

[4] = system: GPlb-IL-4-tg platelets; experiment: Flow chamber: thrombus formation on collagen in flow, blood of GPlb-IL-4tg mice; assay type: cell-based, mouse; details: shear rate 1000 s−1
Protocol: as §2

[5] = system: neutrophils; experiment: Neutrophil rolling/adhesion, coated capillaries and intravital microscopy of cremaster; design: species or system mouse; details: in vitro and in vivo
Protocol: Mice were anesthetized, and cremasal tissue was dissected under a Nikon 20×water immersion lens (NA=0.32). Neutrophils were resuspended with 20 μl of anti-Ly6G (Biolegend 127608) and platelets with 20 μl of platelet-specific FITC-labeled X488 antibody (emfret, Eibelstadt, Germany) in 200 μl and administered i.v. Videos of postcapillary cremaster venules 20-40 μm in diameter were recorded using a Hamamatsu Orca Flash 4.0 camera mounted on a dual-emission image splitter (optoSplit II, Cairn Research; UK) at a rate of 16 frames/s (for videos totaling 10 seconds) and with a resolution of 2048×1024 pixels mounted on a Nikon Eclipse Ci-L microscope (Nikon, Dusseldorf; Germany) operated by NIS elements Ar software. Videos were recorded before administration of rmSema7a i.v., and videos were recorded at 20-second intervals for 5 minutes after incubation for 15 minutes. Neutrophil velocity (μm/sec) was calculated from manually tracked cells, stationary neutrophils were counted (cell count/mm^2), platelet sedimentation on the vessel wall was measured (normalized MFI %/mm), transmigrated cells from the vasculature after 15 min exposure to rmSema7a were counted (cell count/mm^2), the distance of transmigrated cells measured in μm in all videos was calculated using NIS elements Ar software 4.20-64 bit processed (Nikon, Dusseldorf, Germany).

[6] = system: human cardiac myocytes (HMCs); experiment: Caspase 3 staining and caspase 3 ELISA in cardiac myocytes; assay type: cell-based; details: 1 μg/ml; cardiomyocytes
Protocol: Human cardiac myocytes (HMC-c; PromoCell, Heidelberg, Germany) were grown to confluence on chamber slides followed by 6 hours of stimulation with rhSEMA7A, rhlgG1 Fc, BSA, or staurosporine (Sigma-Aldrich, Munich, Germany), 1 μg/ml each. After fixation, cells were stained with rabbit polyclonal anticaspase3 (abcam, Cambridge, UK).

| pro-apoptotic effect assessed by caspase 3 activation [6] | Molecule | infarct size ([1]; 1 μg/mouse before reperfusion, compared with rmIgG2A Fc control) | numbers of PNCs in tissue areas at risk (histological sections) ([1]; compared with Fc controls) | tissue damage in histological sections ([1]; compared with Fc controls) | PNCs extravasated into the myocardium in the AAR ([1]; flow cytometry) | numbers of PNCs in the blood ([1]; flow cytometry) | signals for GPlb, P-selectin, and activated integrin αIIbβ3 (JON/A) on conjugates in the AAR ([1]; flow cytometry) | signals for the platelet markers GPlb, CD62P, and activated integrin αIIbβ3 (JON/A) on conjugates in blood ([1]; flow cytometry) | troponin I ([1]; plasma, 120 min, compared with Fc control) | reduction in infarct size, plasma TnI and PNCs seen in Sema7a loxP/loxP HbbCre+ animals ([2]; injection of rmSema7a) | MIRI ([2]; ischemia 1 h, reperfusion 2 h, vs Fc control) | adhesion and thrombus formation of WT platelets on collagen in flow ([3]; shear rate 400 s^−1) | adhesion and thrombus formation of WT platelets on collagen in flow ([3]; shear rate 1000 s^−1) | adhesion or thrombus formation of GPlb-IL-4-tg platelets on collagen in flow [4] | neutrophil adhesion [5] |
| --- | --- | --- | --- | --- | --- | --- | --- | --- | --- | --- | --- | --- | --- | --- | --- |
| – | rmSema7a: recombinant mouse Sema7a fusion protein (R&D SYSTEMS, Minneapolis, USA) (protein, left off: a dimerising Fc or GST) QGHSRSGPRISAVWKGQDHVDFSQPEPHTVLFHEPGSFSVWVGGRGKVYHFNFPEGKNASVRTVNIGSTKGSCQDKQDCGNYITLLERRGNGLLVCGTNARKPSCWNLVNDSVVMSLGEMKGYAPFSPDENSLVLFEGDEVYSTIRKQEYNGKIPRFRRIRGESELYTSDTVMQNPQFIKATIVHQDQAYDDKIYYFFREDNPDKNPEAPLNVSRVAQLCRGDQGGESSLSVSKWNTFLKAMLVCSDAATNRNFNRLQDVFLLPDPSGQWRDTRVYGVFSNPWNYSAVCVYSLGDIDRVFRTSSLKGYHMGLPNPRPGMCLPKKQPIPTETFQVADSHPEVAQRVEPMGPLKTPLFHSKYHYQKVVVHRMQASNGETFHVLYLTTDRGTIHKVVESGDQDHSFVFNIMEIQPFHRAAAIQAISLDADRRKLYVTSQWEVSQVPLDMCEVYSGGCHGCLMSRDPYCGWDQDRCVSIYSSQRSVLQSINPAEPHRECPNPKPDEAPLQKVSLARNSRYYLTCPMESRHATYLWRHEENVEQSCEPGHQSPSCILFIENLTARQYGHYRCEAQEGSYLREAQHWELLPEDRALAEQLMGHARALA | significantly increased infarct size | decreased numbers of PNCs | increased tissue damage | more PNCs extravasated | significantly increased numbers of PNCs | significantly increased signals | stronger signals | increased troponin I | these results were reversed | increased MIRI | markedly enhances | markedly enhances | does not affect | affected neutrophil adhesion |
| no direct pro-apoptotic effect | rhSEMA7A: recombinant human SEMA7A (protein, UniProt O75326 45-648, looked up) Semaphorin-7A: QGHLRSGPRIFAVWKGHVGQDRVDFGQTEPHTVLFHEPGSSSVWVGGRGKVYLFDFPEGKNASVRTVNIGSTKGSCLDKRDCENYITLLERRSEGLLACGTNARHPSCWNLVNGTVVPLGEMRGYAPFSPDENSLVLFEGDEVYSTIRKQEYNGKIPRFRRIRGESELYTSDTVMQNPQFIKATIVHQDQAYDDKIYYFFREDNPDKNPEAPLNVSRVAQLCRGDQGGESSLSVSKWNTFLKAMLVCSDAATNKNFNRLQDVFLLPDPSGQWRDTRVYGVFSNPWNYSAVCVYSLGDIDKVFRTSSLKGYHSSLPNPRPGKCLPDQQPIPTETFQVADRHPEVAQRVEPMGPLKTPLFHSKYHYQKVAVHRMQASHGETFHVLYLTTDRGTIHKVVEPGEQEHSFAFNIMEIQPFRRAAAIQTMSLDAERRKLYVSSQWEVSQVPLDLCEVYGGGCHGCLMSRDPYCGWDQGRCISIYSSERSVLQSINPAEPHKECPNPKPDKAPLQKVSLAPNSRYYLSCPMESRHATYSWRHKENVEQSCEPGHQSPNCILFIENLTAQQYGHYFCEAQEGSYFREAQHWQLLPEDGIMAEHLLGHACALA | – | – | – | – | – | – | – | – | – | – | – | – | – | – |
